Laboratory results published in the supplement of paper PMC11246515.
± gives the standard deviation of the averaged measurements.

Test: total protein half-life in vivo (active degradation + dilution); higher = more stable protein
[1] = E. coli NCM3722 delta-clpP delta-lon delta-hslV, growth: N-lim chemostat, doubling time 6 h
[2] = E. coli NCM3722 delta-clpP, growth: N-lim chemostat, doubling time 6 h
[3] = E. coli NCM3722 delta-hslV, growth: N-lim chemostat, doubling time 6 h
[4] = E. coli NCM3722 delta-smpB, growth: N-lim chemostat, doubling time 6 h
[5] = wild type E. coli NCM3722, growth: C-lim chemostat, doubling time 3 h
[6] = wild type E. coli NCM3722, growth: C-lim chemostat, doubling time 6 h
[7] = wild type E. coli NCM3722, growth: C-lim chemostat, doubling time 12 h
[8] = wild type E. coli NCM3722, growth: N-lim chemostat, doubling time 6 h
[9] = wild type E. coli NCM3722, growth: N-lim chemostat, doubling time 12 h
[10] = wild type E. coli NCM3722, growth: P-lim chemostat, doubling time 6 h
[11] = wild type E. coli NCM3722, growth: P-lim chemostat, doubling time 12 h
[12] = E. coli NCM3722 delta-lon, growth: N-lim chemostat, doubling time 6 h

| Sequence | total protein half-life in vivo [1] | total protein half-life in vivo [2] | total protein half-life in vivo [3] | total protein half-life in vivo [4] | total protein half-life in vivo [5] | total protein half-life in vivo [6] | total protein half-life in vivo [7] | total protein half-life in vivo [8] | total protein half-life in vivo [9] | total protein half-life in vivo [10] | total protein half-life in vivo [11] | total protein half-life in vivo [12] |
| --- | --- | --- | --- | --- | --- | --- | --- | --- | --- | --- | --- | --- |
| MDLSQLTPRRPYLLRAFYEWLLDNQLTPHLVVDVTLPGVQVPMEYARDGQIVLNIAPRAVGNLELANDEVRFNARFGGIPRQVSVPLAAVLAIYARENGAGTMFEPEAAYDEDTSIMNDEEASADNETVMSVIDGDKPDHDDDTHPDDEPPQPPRGGRPALRVVK [P0AFZ3] | 5.705 ± 0.0087 h | 4.58 ± 0.2 h | 3.9 ± 0.61 h | 3.43 ± 0.19 h | 2.69 ± 0.14 h | 5.89 ± 0.079 h | 7.4 ± 0.38 h | 3.26 h | 6.17 ± 3 h | 3.73 ± 0.69 h | 7.51 ± 0.57 h | – |
| MYTQTLYELSQEAERLLQLSRQQLQLLEKMPLSVPGDDAPQLALPWSQPNIAERHAMLNNELRKISRLEMVLAIVGTMKAGKSTTINAIVGTEVLPNRNRPMTALPTLIRHTPGQKEPVLHFSHVAPIDCLIQQLQQRLRDCDIKHLTDVLEIDKDMRALMQRIENGVAFEKYYLGAQPIFHCLKSLNDLVRLAKALDVDFPFSAYAAIEHIPVIEVEFVHLAGLESYPGQLTLLDTPGPNEAGQPHLQKMLNQQLARASAVLAVLDYTQLKSISDEEVREAILAVGQSVPLYVLVNKFDQQDRNSDDADQVRALISGTLMKGCITPQQIFPVSSMWGYLANRARYELANNGKLPPPEQQRWVEDFAHAALGRRWRHADLADLEHIRHAADQLWEDSLFAQPIQALLHAAYANASLYALRSAAHKLLNYAQQAREYLDFRAHGLNVACEQLRQNIHQIEESLQLLQLNQAQVSGEIKHEIELALTSANHFLRQQQDALKVQLAALFQDDSEPLSEIRTRCETLLQTAQNTISRDFTLRFAELESTLCRVLTDVIRPIEQQVKMELSESGFRPGFHFPVFHGVVPHFNTRQLFSEVISRQEATDEQSTRLGVVRETFSRWLNQPDWGRGNEKSPTETVDYSVLQRALSAEVDLYCQQMAKVLAEQVDESVTAGMNTFFAEFASCLTELQTRLRESLALRQQNESVVRLMQQQLQQTVMTHGWIYTDAQLLRDDIQTLFTAERY [P0DM85] | – | – | – | – | 2.44 ± 0.21 h | – | 5.52 ± 1.4 h | – | – | 3.43 ± 0.63 h | 6.3 ± 0.69 h | – |
| MPRGLELLIAQTILQGFDAQYGRFLEVTSGAQQRFEQADWHAVQQAMKNRIHLYDHHVGLVVEQLRCITNGQSTDAAFLLRVKEHYTRLLPDYPRFEIAESFFNSVYCRLFDHRSLTPERLFIFSSQPERRFRTIPRPLAKDFHPDHGWESLLMRVISDLPLRLRWQNKSRDIHYIIRHLTETLGTDNLAESHLQVANELFYRNKAAWLVGKLITPSGTLPFLLPIHQTDDGELFIDTCLTTTAEASIVFGFARSYFMVYAPLPAALVEWLREILPGKTTAELYMAIGCQKHAKTESYREYLVYLQGCNEQFIEAPGIRGMVMLVFTLPGFDRVFKVIKDRFAPQKEMSAAHVRACYQLVKEHDRVGRMADTQEFENFVLEKRHISPALMELLLQEAAEKITDLGEQIVIRHLYIERRMVPLNIWLEQVEGQQLRDAIEEYGNAIRQLAAANIFPGDMLFKNFGVTRHGRVVFYDYDEICYMTEVNFRDIPPPRYPEDELASEPWYSVSPGDVFPEEFRHWLCADPRIGPLFEEMHADLFRADYWRALQNRIREGHVEDVYAYRRRQRFSVRYGEMLF | 4.97 h | 3.61 h | – | – | – | 6.35 ± 0.23 h | 10.7 ± 0.2 h | – | – | – | 11.9 h | – |
| MKSKDTLKWFPAQLPEVRIILGDAVVEVAKQGRPINTRTLLDYIEGNIKKTSWLDNKELLQTAISVLKDNQNLNGKM | – | – | – | 2.39 h | – | – | 4.92 h | – | – | – | – | – |
| MAEHRGGSGNFAEDREKASDAGRKGGQHSGGNFKNDPQRASEAGKKGGQQSGGNKSGKS | 0.599 h | – | – | – | – | – | – | 1.49 h | 1.92 ± 0.038 h | – | – | 1.5 h |
| MSRSLLTNETSELDLLDQRPFDQTDFDILKSYEAVVDGLAMLIGSHCEIVLHSLQDLKCSAIRIANGEHTGRKIGSPITDLALRMLHDMTGADSSVSKCYFTRAKSGVLMKSLTIAIRNREQRVIGLLCINMNLDVPFSQIMSTFVPPETPDVGSSVNFASSVEDLVTQTLEFTIEEVNADRNVSNNAKNRQIVLNLYEKGIFDIKDAINQVADRLNISKHTVYLYIRQFKSGDFQGQDK | 6.19 ± 0.97 h | 4.65 ± 0.54 h | 3.52 ± 0.076 h | 3.38 ± 0.41 h | 2.482 ± 0.004 h | 4.69 ± 1.3 h | 6.93 ± 0.81 h | 3.36 ± 0.46 h | 4.95 ± 1.1 h | 3.94 ± 0.15 h | 6.94 ± 0.43 h | 3.21 ± 0.28 h |
| MRSSAKQEELVKAFKALLKEEKFSSQGEIVAALQEQGFDNINQSKVSRMLTKFGAVRTRNAKMEMVYCLPAELGVPTTSSPLKNLVLDIDYNDAVVVIHTSPGAAQLIARLLDSLGKAEGILGTIAGDDTIFTTPANGFTVKDLYEAILELFDQEL [P0A6D0] | 5.74 h | 5.76 ± 0.36 h | 5.36 ± 0.18 h | 6.3 ± 1.1 h | 3.07 ± 0.25 h | 5.2 ± 1 h | 10.7 ± 1.8 h | 5.26 ± 0.67 h | 10.5 h | 4.85 ± 0.56 h | 11.8 ± 0.96 h | 6.26 h |
| MSYTPMSDLGQQGLFDITRTLLQQPDLASLCEALSQLVKRSALADNAAIVLWQAQTQRASYYASREKDTPIKYEDETVLAHGPVRSILSRPDTLHCSYEEFCETWPQLDAGGLYPKFGHYCLMPLAAEGHIFGGCEFIRYDDRPWSEKEFNRLQTFTQIVSVVTEQIQSRVVNNVDYELLCRERDNFRILVAITNAVLSRLDMDELVSEVAKEIHYYFDIDDISIVLRSHRKNKLNIYSTHYLDKQHPAHEQSEVDEAGTLTERVFKSKEMLLINLHERDDLAPYERMLFDTWGNQIQTLCLLPLMSGDTMLGVLKLAQCEEKVFTTTNLNLLRQIAERVAIAVDNALAYQEIHRLKERLVDENLALTEQLNNVDSEFGEIIGRSEAMYSVLKQVEMVAQSDSTVLILGETGTGKELIARAIHNLSGRNNRRMVKMNCAAMPAGLLESDLFGHERGAFTGASAQRIGRFELADKSSLFLDEVGDMPLELQPKLLRVLQEQEFERLGSNKIIQTDVRLIAATNRDLKKMVADREFRSDLYYRLNVFPIHLPPLRERPEDIPLLAKAFTFKIARRLGRNIDSIPAETLRTLSNMEWPGNVRELENVIERAVLLTRGNVLQLSLPDIVLPEPETPPAATVVALEGEDEYQLIVRVLKETNGVVAGPKGAAQRLGLKRTTLLSRMKRLGIDKSALI | 6.33 ± 0.39 h | 4.33 ± 0.27 h | 3.33 ± 0.097 h | 3.22 ± 0.57 h | 2.4 ± 0.24 h | 5.33 ± 1.1 h | 7.11 ± 0.98 h | 3.48 ± 0.2 h | 8.1 ± 4.8 h | 2.84 h | 5.132 ± 0.02 h | 5.42 ± 0.29 h |
| MEMLEEHRCFEGWQQRWRHDSSTLNCPMTFSIFLPPPRDHTPPPVLYWLSGLTCNDENFTTKAGAQRVAAELGIVLVMPDTSPRGEKVANDDGYDLGQGAGFYLNATQPPWATHYRMYDYLRDELPALVQSQFNVSDRCAISGHSMGGHGALIMALKNPGKYTSVSAFAPIVNPCSVPWGIKAFSSYLGEDKNAWLEWDSCALMYASNAQDAIPTLIDQGDNDQFLADQLQPAVLAEAARQKAWPMTLRIQPGYDHSYYFIASFIEDHLRFHAQYLLK | 5.79 ± 0.058 h | 5.61 ± 0.89 h | – | 5.19 ± 0.2 h | 3.5 ± 0.13 h | 5.59 ± 0.15 h | 13 ± 2.8 h | 5.67 ± 0.38 h | 8.798 ± 0.034 h | 6.2 ± 0.11 h | 11.9 ± 1.7 h | 6.09 ± 0.43 h |
